Columns and labels:
[1] = target: T1, rhIL-6-His (recombinant human IL-6, Val30 to Met212, C-terminal 6 His) (human, UniProt P05231 30-212); assay: cell-based or functional assay
[2] = target: T1, rhIL-6-His (recombinant human IL-6, …); assay: BLI, ForteBio Blitz
[3] = target: T1, rhIL-6-His (recombinant human IL-6, …); assay: ELISA, rhIL-6-His coated at 1 µg/ml, anti-human IgG-HRP
Procedure: The rhIL-6-His antigen was diluted with PBS (pH=8.6) to 1 μg/ml, added to a microtiter plate at 100 μl/well, coated overnight at 4° C., and blocked at 37° C. for 2 hour by adding 300 μl/well of 3% BSA after washing the plate 4 times with PBST. […] The plate was washed for 4 times with PBST, added with HRP (horseradish peroxidase) labeled goat anti-human IgG antibody (ProteinTech, SA00001-1), and incubated at 37° C. for 1 hour. The plate was washed for 4 times with PBST, added with 100 μl/well of TMB color-developing solution (Zuman Bio, ZD311), and incubated at 37° C. for 15 minutes; after color development, 50 μl/well of stop solution (1M sulfuric acid) was added, and the absorbance value at 450 nm wavelength was measured on the microplate reader (BioTek, ELx808).

[4] = target: T1, rhIL-6-His (recombinant human IL-6, …); assay: competition ELISA: antibody pre-incubated with rhIL-6-His, binding to coated rhIL-6R detected with anti-His-HRP
Procedure: The rhIL-6R (Sino Biological, 10398-H02H) antigen was diluted with PBS (pH=8.6) to 1.5 μg/ml, added to a microtiter plate A at 100 μl/well, coated overnight at 4° C., and blocked at 37° C. for 2 hour by adding 300 μl/well of 3% BSA after washing the plate for 4 times with PBST. […] The plate A was washed once with PBST, added with the mixture in plate B, and incubated at 37° C. for 1 hour. The plate A was washed for 4 times with PBST, added with 100 μl/well of HRP (horseradish peroxidase) labeled anti-His antibody (ProteinTech, HRP-66005), and incubated at 37° C. for 1 hour. The plate was washed for 4 times with PBST, added with 100 μl/well of TMB color-developing solution (Zuman Bio, ZD311), and incubated at 37° C. for 15 minutes for color development; 50 μl/well of stop solution (1M sulfuric acid) was added, and the absorbance value at 450 nm wavelength was measured on the microplate reader (BioTek, ELx808).

T1 sequence (P05231 other isoform, or with tags, fused parts or gaps limits assumed): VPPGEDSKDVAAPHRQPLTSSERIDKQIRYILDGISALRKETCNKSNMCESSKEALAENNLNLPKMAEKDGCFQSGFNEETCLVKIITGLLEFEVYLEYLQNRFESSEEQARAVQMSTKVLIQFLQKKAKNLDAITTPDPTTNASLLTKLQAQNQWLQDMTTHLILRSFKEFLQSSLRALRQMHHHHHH

Row | Binder | concentration of SAA in supernatant of rhIL-6 stimulated HepG2 cells at 100 µg/mL antibody [1] [ng/mL] | concentration that inhibits IL-6-stimulated phosphorylation of p-Stat3 (Tyr705) in DLD-1 cells, Western blot [1] [µg/mL] | kon [2] [M⁻¹ s⁻¹] | EC50 [3] [µg/mL] | IC50 [4] [µg/mL]
1 | HZ-0408a (antibody, human IgG1, kappa, V domains shown, Humanized from murine 140-4; expressed in 293F cells and captured on Protein A as an IgG1 type antibody; also called L1/H2) VH: QVTLKESGPALVKPTQTLTLTCTFSGFSLSTSGMGVGWIRQPPGKALEWLAHIWWDDDKRYNSALKSRLTISKDTSKNQVVLTMTNMDPVDTATYYCARIGGLYVDYLMDYWGQGTLVTVSS VL: EIVLTQSPDFQSVTPKEKVTITCRASQSISDYLHWYQQKPDQSPKLLIKYASQSISGVPSRFSGSGSGTDFTLTINSLEAEDAATYYCQNGHSFPWTFGQGTKVEIKR | 30.5 | 2 | 128000 | 0.16 | 0.72
2 | HZ-0408c (antibody, human IgG1, kappa, V domains shown, Humanized from murine 140-4; IgG1 type antibody from 293F cells; also called L2/H3) VH: QVTLKESGPVLVKPTETLTLTCTVSGFSLSTSGMGVGWIRQPPGKALEWLAHIWWDDDKRYNSALKSRLTISKDTSKSQVVLTMTNMDPVDTATYYCARIGGLYVDYLMDYWGQGTLVTVSS VL: EIVLTQSPATLSLSPGERATLSCRASQSISDYLHWYQQKPGQAPRLLIYYASQSISGIPARFSGSGSGTDFTLTISSLEPEDFAVYYCQNGHSFPWTFGQGTKVEIKR | 12.5 | 8 | 74300 | 0.18 | 1.29
3 | HZ-0408b (antibody, human IgG1, kappa, V domains shown, Humanized from murine 140-4; IgG1 type antibody from 293F cells; also called L1/H3) VH: QVTLKESGPVLVKPTETLTLTCTVSGFSLSTSGMGVGWIRQPPGKALEWLAHIWWDDDKRYNSALKSRLTISKDTSKSQVVLTMTNMDPVDTATYYCARIGGLYVDYLMDYWGQGTLVTVSS VL: EIVLTQSPDFQSVTPKEKVTITCRASQSISDYLHWYQQKPDQSPKLLIKYASQSISGVPSRFSGSGSGTDFTLTINSLEAEDAATYYCQNGHSFPWTFGQGTKVEIKR | -2.5 | 2 | 233000 | 0.09 | 0.53

Further lines, results first:

Row | concentration of SAA in supernatant of rhIL-6 stimulated HepG2 cells at 100 µg/mL antibody [1] [ng/mL] | concentration that inhibits IL-6-stimulated phosphorylation of p-Stat3 (Tyr705) in DLD-1 cells, Western blot [1] [µg/mL] | kon [2] [M⁻¹ s⁻¹] | EC50 [3] [µg/mL] | IC50 [4] [µg/mL] | Binder
4 | 148 | 64 | 28900 | 67.3 | 12.5 | Siltuximab (antibody, V domains shown) VH: EVQLVESGGKLLKPGGSLKLSCAASGFTFSSFAMSWFRQSPEKRLEWVAEISSGGSYTYYPDTVTGRFTISRDNAKNTLYLEMSSLRSEDTAMYYCARGLWGYYALDYWGQGTSVTVSS VL: QIVLIQSPAIMSASPGEKVTMTCSASSSVSYMYWYQQKPGSSPRLLIYDTSNLASGVPVRFSGSGSGTSYSLTISRMEAEDAATYYCQQWSGYPYTFGGGTKLEIK
5 | 85 | 32 | 93200 | 0.39 | 3.04 | HZ-0408d (antibody, human IgG1, kappa, V domains shown, Humanized from murine 140-4; IgG1 type antibody from 293F cells; also called L3/H3) VH: QVTLKESGPVLVKPTETLTLTCTVSGFSLSTSGMGVGWIRQPPGKALEWLAHIWWDDDKRYNSALKSRLTISKDTSKSQVVLTMTNMDPVDTATYYCARIGGLYVDYLMDYWGQGTLVTVSS VL: DIQMTQSPSSLSASVGDRVTITCRASQSISDYLHWYQQKPGKAPKLLIYYASQSISGVPSRFSGSGSGTDFTLTISSLQPEDFATYYCQNGHSFPWTFGQGTKVEIKR
